Experimental data reported in PMC3586275 (Biochemistry, 2009).

Molecular target: the molecule itself
Experiment: SEC

B1: streptococcal coaggregation regulator (ScaR) (natural protein, Streptococcus gordonii, UniProt Q9RFN3 1-215, looked up)
chain: MTPNKEDYLKCLYELGTRHNKITNKEIAQLMQVSPPAVTEMMKKLLAEELLIKDKKAGYLLTDLGLKLVSDLYRKHRLIEVFLVHHLGYTTEEIHEEAEVLEHTVSDHFVERLDQLLDYPKACPHGGTIPAKGELLVEKHKLTLEEAKEKGDYILARVHDNFDLLTYLERNGLQVGKTIRFLGYDDFSHLYSLEVDGQEIQLAQPIAQQIYVEKI
- stoichiometry N: 2
